Experimental data from patent publication US20180057888A1 (University of Texas, published 2018).

Target: RNA Polymerase II (RNAPII), phospho-Ser2 C-terminal domain (pS2-CTD) (UniProt P24928 1-1970)
Assay: co-immunoprecipitation with anti-c-myc antibody, Western blot for RNAPII
Procedure: Whole-cell lysates and nuclear extracts were prepared as previously described (Morales et al., 2014). See Supplementary Table S2 for a list of specific antibodies and dilutions used. Protein concentrations were determined by BCA Assay following manufacturer's instructions (Thermo Scientific). Normalized protein samples were separated on denaturing gradient gels (4-20% from BioRad) and were transferred to PVDF membranes for immunoblotting. After transfer, the membranes were first blocked with 1× Sigma Blocking Buffer for an hour at room temperature. The membranes were then incubated with the indicated primary antibodies diluted in 1× Sigma Blocking Buffer at 4° C. overnight. After this step, the membranes were washed with PBST (3×, 10 minutes each). HRP-conjugated secondary antibodies were diluted in 1× Sigma Blocking Buffer and incubated with the membranes at room temperature for 1 hr. […]
Log phase cells were plated in 10-cm dishes, and incubated after transfection with either empty pCMV-myc vector, myc-tagged wild-type K-H or myc-tagged mutant K-H (R106A) constructs for 48 hr using Lipofectamine 2000. […] Co-immunoprecipitated proteins (e.g., RNAPII) were analyzed by Western blot as previously described.

- binding result: no binding
B1: myc-tagged mutant K-H (R106A) (other)
chain: MSSFSESALEKKLSELSNSQQSVQTLSLWLIHHRKHAGPIVSVWHRELRKAKSNRKLTFLYLANDVIQNSKRKGPEFTREFESVLVDAFSHVAREADEGCKKPLEALLNIWQERSVYGGEFIQQLKLSMEDSKSPPPKATEEKKSLKRTFQQIQEEEDDDYPGSYSPQDPSAGPLLTEELIKALQDLENAASGDATVRQKIASLPQEVQDVSLLEKITDKEAAERLSKTVDEACLLLAEYNGRLAAELEDRRQLARMLVEYTQNQKDVLSEKEKKLEEYKQKLARVTQVRKELKSHIQSLPDLSLLPNVTGGLAPLPSAGDLFSTD
notes: Expressed from a transfected myc-tagged construct and immunoprecipitated with anti-c-myc antibody; also called R106A mutant K-H; mutant R106A K-H; not shown: myc tag from the pCMV-myc vector
